This note sets out measurements from the DeepSol protein solubility set.

This data set is described as follows: soluble on expression in E. coli; label from the status in PepcDB or PDB records.
With “MGSDKIHHHHHHMFPPDKTLFLCLSALLLASCGTTSGKHRQPKPKQTVRQIQAVRISHIDRTQGSQELMLHSLGLIGTPYKWGGSSTATGFDCSGMIQFVYKNALNVKLPRTARDMAAASRKIPDSRLKAGDLVFFNTGGAHRYSHVGLYIGNGEFIHAPSSGKTIKTEKLSTPFYAKNYLGAHTFFTE”, the “soluble on expression in E. coli” value is reported as “not soluble”.

In the case of “MAHHHHHHMKMISFNVFRHVESPACCPPASFVADLSITSKKNTHKHLLSFFIFPLFLESLSVMLPTQKPVLFTPGPLMTSDTVKEAMLTDYASRDIRFVQAVKFIREELISVAGLDPQKWACILQQGSGSMGIEAAISTIFPRTGGKFLLINSGKYSEKQACVVKRLQFPMVMLKMGEGEELKMSALESIIRANPDITTVGFVHHETSTGMLYPAEQIAEVVRRELPKAKIIIDGISAFGGIPCDYEKACDVLVAAPNKCLHSVPGISIILARRLLIEAAKGCARSATLDLSMQLMSFDKSGQFAVTPPVHVVMALQQALVEYKRDGGLSGRQKTYQAKAQLVREAVKAMGFTLFLGESKPSCANVVVCVNMPRDPRWNFKRFYTYLNERGLIIYPGKASHAETFRFGIIGHTSLANCERLMKCAKEALKSMGIDHLQRKSNM”, the “soluble on expression in E. coli” value is recorded as “not soluble”.

Regarding “MGSDKIHHHHHHMLTTLAIGNYRSINHLVLPLSQLNLVTGANGSGKSNLYKALRLLAETAQGGVVEALAREGGLDSTWWAGPETSARMRRGEVPIQGQHPSEVRRLRLGFATEDLGFAITLGLPIPLPYPSAFMLDPEIKCEAIWGAGAYRPSSLLVERKNALVRAREGNRWAVLDQHADSGESFFNIVGRPRQAPEIGDLRAFINSWRFYDHFRIDRDAPCRQPQLGTRSPVLHHDGRNLASALQTIIEIGDVEDLEEALNDAFPGSRLEINAPPGGLFSVRLHQHGLLRPLEGAELSDGTLRYLLLMAALLTPRPPSLMVLNEPETSLHADLLPALARLIIRASRRSQVWVVSHSAPLINALAACDGCNVLELEKIQGQTQLRGVGLLDEPLWRWAD”, the “soluble on expression in E. coli” value is reported as “not soluble”.

On to “MGSDKIHHHHHHMKTRADLFAFFDAHGVDHKTLDHPPVFRVEEGLEIKAAMPGGHTKNLFLKDAKGQLWLISALGETTIDLKKLHHVIGSGRLSFGPQEMMLETLGVTPGSVTAFGLINDTEKRVRFVLDKALADSDPVNFHPLKNDATTAVSQAGLRRFLAALGVEPMIVDFAAMEVVG”, for which the “soluble on expression in E. coli” value is listed as “soluble”.

With “MKAQMESWQDIQEYVKNNKKKHKRRMANDAMKNVNELGFPFTYFEDTYQFAIKTSIGMVDYFGTTGTWVVRKNQDRGRGLKKLKKYLEHPVPTKEIKKTKGNQSWMKNNR”, the “soluble on expression in E. coli” value is on record as “not soluble”.

Take “MMAESTGVDRGIQSLIAARKSLKLSLEKSKAIGLALGKTGPRFDEIEQRLPLLEAAVRPIRADGEALKDVGGNINRAVGPAAAVLKVFDAVHGLEKSLLSDPKNDLSSYLSVLKRLEEALKFLGENCGLAIQWLEDIVEYLDDHHVADEKYLSNLKKSLRGLSEFHNDRGGGEEKERSQLRLDGGLRNAALDKLENEFRRLLKDNSVPLPMASPSSLGDQACIAPSQLPVTVIHKLQAILGRLRANNRLDKCISIYVEVRSLNVRASLQALDLDYLDISVSEFNDVQSIEGYIAQWGNHLEFAVKHLFEAEFKLCNDVFERLGLNVWMDCFSKIAAQAGMLAFLQFGKTVTDSKKDPIKLLKLLDIFTSLNKLRADFNRLFGGAACIEIQNFTRDLIKRIIDGAAEIFWELLVQVEIQKQTPPPSDGGVPRLVSFVTDYCNKLIGDKYKSTLTQVLLIHKSWRSERFQDNQLMVEVLRIIKAIEQNLDVWMKAYPDQTLAHFFGMNNHWHLYKNLKGTNIGDHLGDSWLKEHDQYKEYYATVFLRDSWGKLPSHLSREGLILFSGGHATARDLVKKRLKAFNDAFDEMYKKQASWVLPEKDLRDRVCQQIVQAIVPVYRSYMQNYGPLVEKDASSSKYVRYTVVALEKILSSLYMPKPMRYGSFKGTPPSEKFKNDVDLRRTTSAVV”: the “soluble on expression in E. coli” value is “soluble”.

On to “MKKIAIFGSRHKSEQGASIKALILKLEEAGTPLYIERKFLSFLKQDLDFHPAICGVIDTLPEHIDYVICMGGDGTFLRTAHQIGVSQIPVLGVNTGRLGFLTDVDCHEASELITRLLDGDFTIETRSLLEVTEDNGSSPSYALNEAAILKRETGSMIRVNACLNDDYLAAYDADGLVVATPSGSTAYSLSGNGPIIMPACRNFVLTPIAPHSLNMRPLVVPDDTVIRLEVDSRSRNYLLVLDGRTRTLPCDTSILLKRAPHTLRMIRLRPHSFAETLRRKLMWGAAVRLEHHHHHH”, for which the “soluble on expression in E. coli” value was “soluble”.

As to “REVYVLVIGETARACNFGLYGYERNTTPLLDKMEGVVTFTDVLTQSNTTHKSVPMLLSAASAEDYDCLYRQKGIITAFKEAGFHTAFFSNQLPNHSFIDFLGMEADDWKFIKKDAPKGANISDDELLFLVEKELKAGHQKLFIVLHAYGSHFNYKERYPESMSVFKPDNLTDAKYENKEYLMNAYDNTIRYTDGFLASLITLLQKTNSFSAMLYTSDHGEDIFDDNRKLFLHASPVPSYYQLHVPFLIWLSKTYREKNVEVHEAILQNREKPVAGNASVFHTMLNLAGVQTPYRADSLSVAN”, the “soluble on expression in E. coli” value was “not soluble”.

In the case of “MMKIAIIGSGISGLTCGYYLHRYHDITLFEANDYIGGHTATVDVELAGKPYAVDTGFIVYNDRTYPNFIKMMDEIGVQGKPTQMSFSVRNDANGLEYNGHTLTTLFAQKRNWLNPKFYRFIAEILRFNRLTKACVDNQLANEQTLGDFLAQHQFSEYFCENYILPMGAAIWSSSLADMRAFPLMFFARFFLNHGLLDVTNRPQWYVIPGGSRSYIAPLTQGFGDRIRLNSAVTQVKRLPSGVEVVVNGRSERFDEVIFACHSDQALAMLSDASSTEQQLLSALAYQANEVVLHTDTRLLPKRKAAWAAWNYWLKGEANQETRLPSLTYNMNILQHIEAPETFCVTLNSSEDIDPSKILRRFTYHHPVFSRPAIEAQQKKAQISGVNHTWFCGAYWHNGFHEDGVRSALDVVTQLEAYAQRSEQGAA”, the “soluble on expression in E. coli” value was “not soluble”.

With “VTGFGLRLAEAKARRGPLCLGIDPHPELLRGWDLATTADGLAAFCDICVRAFADFAVVKPQVAFFESYGAAGFAVLERTIAELRAADVLVLADAKRGDIGATMSAYATAWVGDSPLAADAVTASPYLGFGSLRPLLEVAAAHGRGVFVLAATSNPEGAAVQNAAADGRSVAQLVVDQVGAANEAAGPGPGSIGVVVGATAPQAPDLSAFTGPVLVPGVGVQGGRPEALGGLGGAASSQLLPAVAREVLRAGPGVPELRAAGERMRDAVAYLAAV”, the “soluble on expression in E. coli” value is “not soluble”.

In the case of “NDAKKYIVSVLILLVAGMFGGCIKEDYSDCPRPFRLTVRAWDADMQDITETGAVQRVVIFVFDETGRRIDRLMMDAAQVAARKPIPLEYDGPTTVSFVAWANPDDHMLEETANVQNVKDLFFRLSSTDGIAQSPGDLFSGVLTCPIEYGSIEQGTDQTVDIYRRTAQVHIIIRGYQEWLEANGPRQLPDYADILLGETPDTYTGLAELIGNAVQYRPDGQIQNGDFISPIFRVYPTLDTTPLHLKLYAYGQELLNISTGSDGVPFIPVIGKMLNIYIDLRGANLNVLVSVTPWDVVQQYAE”, the “soluble on expression in E. coli” value was “not soluble”.

As for “MGSDKIHHHHHHMMILIQSRGKMKCKELSEELEVSERQIKSYKMYLEQAGIFINSTPGIYGGYEIDKCNSISLIKLLDSEVSILDMINSQLEYNNDIYKNEFNNIVEKIKAVLNTGEKSDTYMDYFTVQAQRNCDYESEKNKCNEIIRAYTTKHKFWIEYYSLNSGNSERIVHPYGLFNYKSDTYMVAFCEKRFKFIDFKLCRIKDYKVLEEKYNVDKSFSWDEYSKNSIGIYKGEEINVVIKISHPFSTIIKEKVWVNNQQIIEYDDKSIMFKAKMRGYEEIKSWILSMGAYVEVVEPDRLRNDILSEIEKMKKIY”, the “soluble on expression in E. coli” value is listed as “not soluble”.

Take “MGSDKIHHHHHHMSDWTDRLPEAARAYIADRRVDEVECILSDIAGVARGKAMPAFKFGKQTSFFLPNSIFLQTITGEWADNPSGAFTEPDMILIPDYSTATAAPWTADITLQVIHDAVDQQGRPVPVSPRNVLRRVVELYNAEGWTPIVAPEMEFFLVARNIDPNMPVMPPMGRTGRRAAAKQAYSMSAVDEYGKVIDDIYDFAEAQGFEIDGILQEGGAGQVEINLAHGDPVALADQIFFFKRLIREAALRHDCFATFMAKPIEGEPGSAMHIHHSVVDSASKLNIFSDAKGGETEAFLHFIAGMQTHLPAAVALLAPYVNSYRRYVPDFAAPINLEWGRDNRTTGLRVPISGPEARRLENRLAGMDCNPYLGLAASLACGYLGLKERKMPQPECTGDAYMSETDLPYNLGDALDLLEEDAALRDVLGPEFCGVYDSVKRNEYKEFLQVISPWEREHLLLNV”: the “soluble on expression in E. coli” value is “not soluble”.

On to “ALQAGRLGSTVFVANLDYKVGWKKLKEVFSMAGVVVRADILEDKDGKSRGIGTVTFEQSIEAVQAISMFNGQLLFDRPMHVKMDERALPKGDFFPPERPQQ”, for which the “soluble on expression in E. coli” value is given as “soluble”.

Turning to “MEPDIEPWDRFRDWLHCICVVTFDLELGQALEVIYPGDAILSNTEKINICYLAFPDSNSSNARDTNFHFRIRRAISDVRDCQKSFVDKSPTSLPFDTHYLYGFVHFRQCKDPTIHRGYYQKSIVLMSVLPLFSLFYSVTARIAEHFFESGEAAIEAACHHIDTWQQPHAGRTIELPLLGTLISCRLPAACDLPYEFRLDGHVELSDDDSQRLVRPDFTTSIVQHVHHLPLLWELVLLGEPLLIVAPTPSITSALVQSIVGLLSPLRIVNDFRPYFTIHDSEFREYSSKSRSPPRVILGVTNPFFIKALDHWPHILKVAEQGAEIGGDDMKKPKKTWSSSRTLDTPAGLYTQYKPFLSKDKSLAKKLLRSGNSLEVQHNILQRHFLELTHSFMIPMERYLSSLMPLKKEMSPFKGIPSTRPFSMDDFLATLETNGGPSLTCGTKGDWQGLYRRFITCSNFGGWLSMRSRDVNAQLKTHYVEALCSADFCSQTLATKHNVEIVDLVLRIRERIIECPPDTEIRRNLVRQVVKILSNVDDDLKQLLMSNCSLREILA”, the “soluble on expression in E. coli” value is “not soluble”.

On to “DAETFHKDELDLAYDRISQQFDTDMGGMNKAPKFPMPSIYLYLLRDYALTGRQGSLQHVELTLDKMAMGGIYDTIGGGFARYSVDGAWFAPHFEKMLYDNGQLLSLYSEAYTVTKKPLYKEVIEETYTWLKREMLSPEGGFYSALDADSEGVEGKFYCWQYEELAQLIQEDFALFCAYYAITENGNWEHGMNILYKRMSDEAFAAAHSISAEALRESVSRWKNILFSERDPREHPGLDDKILASWNGIMLKGLCDAYRILGDAAILNTALMNAEFILTKLYDGKTLFHSYKNKKATIPGFLEDYTHVIDGYLALYEVSLDEQWLRQAITLVNHVIDHFYDDDEGLFFYTSRTSEKLIARKKEIFD”, for which the “soluble on expression in E. coli” value is “not soluble”.

As for “MSPMNRQRKNKSHVLNEKDERPGGIIKEKSSVRSMAKTQPPSGRTISLTEINKPNALSKKNTEIKAAVEIQNRLTKKMAKNSERRKQMAHGPEMTAQNRTQERIDFVDFLDRHYQVIQAGVHKIQYTKEEFENVIYEAQTIFSSEKALVDIDPPCVVVGDLHGQFNDLINMFILLGRPPETVYVFTGDYVDRGMMSLECIMLLFTYKICYPENIVLLRGNHEIARVNKKYGFYEECVTSIPKCGEEIWALFQRCFNNLPISALIATKILCMHGGLSPALTCLDELRNHPKPIRNPFRGIVNDMLWADPDPSVFEWKASSRGSGFTFGTNVIDDVCKRLGVELIIRAHQMCFDGYWVLSGRKLITIFSAPMYCNFYKNAGCVLKVDETLGIQMIAFVPASENIEKIIEEKNRVWDISIDCID”, the “soluble on expression in E. coli” value is on record as “not soluble”.

“MNSRQQTILQMVIDQGQVSVTDLAKATGVSEVTIRQDLNTLEKLSYLRRAHGFAVSLDSDDVETRMMSNYTLKRELAEFAASLVQPGETIFIENGSSNALLARTLGEQKKNVTIITVSSYIAHLLKDAPCEVILLGGVYQKKSESMVGPLTRQCIQQVHFSKAFIGIDGWQPETGFTGRDMMRTDVVNAVLEKECEAIVLTDSSKFGAVHSYSIGPVERFNRVITDSKIRASDLMHLEHSKLTIHVVDI”: the “soluble on expression in E. coli” value is on record as “not soluble”.
